Test results taken from the supplement of paper PMC9170038.

Test system: MS2 coat protein
Assay: apparent KD of MS2 coat protein; designed switch direction (-1 OFF switch, 1 ON switch): 1; higher = weaker reporter binding
How it was run: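 SNAP-549-labelled MS2 coat protein was titrated, doubling from 0.7 or 1.5 nM to 3 µM, over designed RNA switches transcribed on Illumina chips by stalled E. coli RNA polymerase. Runs were done without input, with 200 uM small-molecule ligand, or with an oligonucleotide input. Apparent KD is the per-design median over clusters of curve-fitted normalised fluorescence.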

[1] = input ligand: microRNA oligo, concentration not stated
[2] = Eterna round: R95, input ligand: FMN 200 uM
[3] = Eterna round: R95, input ligand: microRNA oligo, concentration not stated
[4] = Eterna round: R95, input ligand: none

Row | Sequence | apparent KD of MS2 coat protein (input ligand: FMN 200 uM) [nM] | apparent KD of MS2 coat protein [1] [nM] | apparent KD of MS2 coat protein (input ligand: none) [nM] | apparent KD of MS2 coat protein [2] [nM] | apparent KD of MS2 coat protein [3] [nM] | apparent KD of MS2 coat protein [4] [nM]
1 | GUUACAUGAGGAUCACCCAUGUAUGUGUGGGAGUAAGUGUCUUAGGAUAUCUAUGGUUUAAUUUAAGAGAAGGAAGAUUGUUGU [JMF's solution 72] (Eterna round: R96, puzzle: Same State NG 3) | 111 | 73.9 | 96.6 | – | – | –
2 | GUUACAUGAGGAUCACCCAUGUAUGUGUGGGAGUAAGUGUCUUAGGAUAUCUAUUAUUAAAAUUAAGAGAAGGAAGAUUGUUGU [JMF's solution 18] (Eterna round: R96, puzzle: Same State NG 3) | 115 | 98.1 | 103 | – | – | –
3 | GUUACAUGAGGAUCACCCAUGUAUGUGUGGGAGUAAGUGUCUUAGGAUAUCUGUUAUUUAGUUUAAGAGAAGGAAGAUUGUUGU [JMF's solution 41] (Eterna round: R96, puzzle: Same State NG 3) | 124 | 80.9 | 97.4 | – | – | –
4 | GUUACAUGAGGAUCACCCAUGUGUGUGUGGGAGUGAGUGGCUUAGGAUAUCUAUGAUUUUAGUUAAGAGAAGGAGGAUUGCUGU [SS-NG3-LRO07] (Eterna round: R96, puzzle: Same State NG 3) | 275 | 267 | 414 | – | – | –
5 | GUUAGGAAUCUAGCUGACAUGAGGAUCACCCAUGUUAGUGGGAAGGAUAUGGUACAGAAACUGUACCAGAAGGUCUUACUGUCU [MOD Omei's SS(NG) 3 AV9] (Eterna round: R96, puzzle: Same State NG 3) | 23.8 | 21.4 | 25.9 | – | – | –
6 | GUUAUACAUGAGGAUCACCCAUGUCAAUGUAGUCGAGGAUAUGGGCAGCUAUGUAGCGUACUAGAAGGCGAAGAGU [JL-ss1-3.13 ViennaUCT mod] (puzzle: Same State 1) | – | – | – | 68.4 | 43.1 | 103
7 | GUUCGGAAUCGAGCUGACAUGAGGAUCACCCAUGUUAGUGGGAAGGAUAUGGUACAGAAACUGUACCAGAAGGUCCUGCUGUCU [MOD2 Omei's SS(NG) 3 AV9] (Eterna round: R96, puzzle: Same State NG 3) | 38.2 | 57.2 | 59.5 | – | – | –
8 | UACAAUCUAUCUGAGGAUAUCAUGAUCAUAACAUGAGGAUCACCCAUGUGCAGGAAAACUGCAUAUGAGAAGGCAGAUAGAUUGU [salish99_ss2_r3_073] (puzzle: Same State 2) | – | – | – | 214 | 154 | 863
9 | UAGAGAGGAAGCGAGGAUAUCGUGUGAGGUACAUGAGGAUCACCCAUGUUUUAUGUUGAGAGAGGCGAGAAGGCGCAGGAGAAAA [JR_SS2_Sub087] (puzzle: Same State 2) | – | – | – | 20 | 37.3 | 26.2
10 | UAGAGAGGAAGCGAGGAUAUCGUGUUAGGUACAUGAGGAUCACCCAUGUUGUAGGUAGAGGUAGGCGAGAAGGCGCAGGAGAGGA [JR_SS2_Sub092] (puzzle: Same State 2) | – | – | – | 35.6 | 37.6 | 66.2
11 | UAGGGACAUGAGGAUCACCCAUGUGCCUCAUAUGGAGAAACACAGGAUAUGCUGAGGGAAACAUGGCAGAAGGGUGAAGAGAGG [Default title] (Eterna round: R96, puzzle: Same State NG 3) | 31.9 | 27.3 | 50.9 | – | – | –
